Results taken from patent publication US20250313602A1 (published 2025).

Columns and labels:
[1] = molecular target: T1, human IL-2Rα protein (10165-H08H, Sino Biological) (human, UniProt P01589 22-213); experiment: ELISA
T1 chain: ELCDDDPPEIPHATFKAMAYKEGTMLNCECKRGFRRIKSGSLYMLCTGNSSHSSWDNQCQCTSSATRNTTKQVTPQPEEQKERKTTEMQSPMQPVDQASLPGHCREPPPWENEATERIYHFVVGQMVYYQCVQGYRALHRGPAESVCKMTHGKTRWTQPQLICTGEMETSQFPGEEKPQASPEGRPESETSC

[2] = molecular target: T2, human IL-2Rβ protein (10696-H05H, Sino Biological) (human, UniProt P14784 27-239); experiment: ELISA
T2 chain: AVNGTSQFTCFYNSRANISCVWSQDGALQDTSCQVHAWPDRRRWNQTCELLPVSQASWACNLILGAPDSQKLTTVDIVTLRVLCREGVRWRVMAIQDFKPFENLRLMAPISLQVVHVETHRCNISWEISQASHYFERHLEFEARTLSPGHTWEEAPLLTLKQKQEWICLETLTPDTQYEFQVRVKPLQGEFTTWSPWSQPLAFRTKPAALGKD

B1: IL-2-Fc fusion protein (Fc fusion)
chain: APTSSSTKKTQLQLEHLLLDLQMILNGINNYKNPKLTAMLTFKFYMPKKATELKHLQCLEEELKPLEEVLNLAQSKNFHFDPRDVVSNINVFVLELKGSETTFMCEYADETATIVEFLNRWITFCQSIISTLTGGGGSGGGGSGGGGSEPKSCDKTHTCPPCPAPEAAGGPSVFLFPPKPKDTLYITREPEVTCVVVDVSHEDPEVKFNWYVDGVEVHNAKTKPREEQYNSTYRVVSVLTVLHQDWLNGKEYKCKVSNKALPAPIEKTISKAKGQPREPQVYTLPPSREEMTKNQVSLTCLVKGFYPSDIAVEWESNGQPENNYKTTPPVLDSDGSFFLYSKLTVDKSRWQQGNVFSCSVMHEALHNHYTQKSLSLSPK
- EC50 [1]: 3.06 nM
- EC50 [2]: 94 nM
